55 molecules from paper PMC12416549 (2024) can be followed below.

The chains are these.
T1: TNFR1 (Homo sapiens, UniProt P19438)
T1 chain: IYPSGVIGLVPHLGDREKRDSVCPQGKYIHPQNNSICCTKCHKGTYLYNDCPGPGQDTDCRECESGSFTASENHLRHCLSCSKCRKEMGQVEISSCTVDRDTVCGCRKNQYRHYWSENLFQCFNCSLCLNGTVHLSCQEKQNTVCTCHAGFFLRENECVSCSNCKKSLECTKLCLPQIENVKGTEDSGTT

B1: D40C (designed binder)
chain: MTLQELLREEALRRAEAEAFRYALELLAEKFPEQKEYLLCLAEEIESQIRSLSGVDVEDVRKFLDKEWAWVKELLAEHPAELAEVEAARAARLAELRAEVEAKVAA
B2: K72P (designed binder)
chain: B1 chain with C40D, K72P
B3: A90M (designed binder)
chain: B1 chain with C40D, A90M
B4: K66P (designed binder)
chain: B1 chain with C40D, K66P
B5: A94S (designed binder)
chain: B1 chain with C40D, A94S
B6: L75T (designed binder)
chain: B1 chain with C40D, L75T
B7: A87W (designed binder)
chain: B1 chain with C40D, A87W
B8: P32H (designed binder)
chain: B1 chain with P32H, C40D
B9: A15S (designed binder)
chain: B1 chain with A15S, C40D
B10: A28G (designed binder)
chain: B1 chain with A28G, C40D
B11: W68V (designed binder)
chain: B1 chain with C40D, W68V
B12: R21M (designed binder)
chain: B1 chain with R21M, C40D
B13: L24E (designed binder)
chain: B1 chain with L24E, C40D
B14: E18W (designed binder)
chain: B1 chain with E18W, C40D
B15: E36T (designed binder)
chain: B1 chain with E36T, C40D
B16: E25P (designed binder)
chain: B1 chain with E25P, C40D
B17: L82T (designed binder)
chain: B1 chain with C40D, L82T
B18: D65E (designed binder)
chain: B1 chain with C40D, D65E
B19: E5I (designed binder)
chain: B1 chain with E5I, C40D
B20: S51D (designed binder)
chain: B1 chain with C40D, S51D
B21: A94Q (designed binder)
chain: B1 chain with C40D, A94Q
B22: F20N (designed binder)
chain: B1 chain with F20N, C40D
B23: E99T (designed binder)
chain: B1 chain with C40D, E99T
B24: S47T (designed binder)
chain: B1 chain with C40D, S47T
B25: E36R (designed binder)
chain: B1 chain with E36R, C40D
B26: E18R (designed binder)
chain: B1 chain with E18R, C40D
B27: E9N (designed binder)
chain: B1 chain with E9N, C40D
B28: E101L (designed binder)
chain: B1 chain with C40D, E101L
B29: D56T (designed binder)
chain: B1 chain with C40D, D56T
B30: L26Q (designed binder)
chain: B1 chain with L26Q, C40D
B31: Q4T (designed binder)
chain: B1 chain with Q4T, C40D
B32: P32I (designed binder)
chain: B1 chain with P32I, C40D
B33: E58W (designed binder)
chain: B1 chain with C40D, E58W
B34: P32G (designed binder)
chain: B1 chain with P32G, C40D
B35: L96Y (designed binder)
chain: B1 chain with C40D, L96Y
B36: L3E (designed binder)
chain: B1 chain with L3E, C40D
B37: V85I (designed binder)
chain: B1 chain with C40D, V85I
B38: R8N (designed binder)
chain: B1 chain with R8N, C40D
B39: K66V (designed binder)
chain: B1 chain with C40D, K66V
B40: L93A (designed binder)
chain: B1 chain with C40D, L93A
B41: V100C (designed binder)
chain: B1 chain with C40D, V100C
B42: K62W (designed binder)
chain: B1 chain with C40D, K62W
B43: K103I (designed binder)
chain: B1 chain with C40D, K103I
B44: A80M (designed binder)
chain: B1 chain with C40D, A80M
B45: V85T (designed binder)
chain: B1 chain with C40D, V85T
B46: K30H (designed binder)
chain: B1 chain with K30H, C40D
B47: E81R (designed binder)
chain: B1 chain with C40D, E81R
B48: V100H (designed binder)
chain: B1 chain with C40D, V100H
B49: K35H (designed binder)
chain: B1 chain with K35H, C40D
B50: E58S (designed binder)
chain: B1 chain with C40D, E58S
B51: K72H (designed binder)
chain: B1 chain with C40D, K72H
B52: L74F (designed binder)
chain: B1 chain with C40D, L74F
B53: V71P (designed binder)
chain: B1 chain with C40D, V71P
B54: Y37W (designed binder)
chain: B1 chain with Y37W, C40D
B55: A105S (designed binder)
chain: B1 chain with C40D, A105S

Substitutions are numbered along the chain they refer to. In names and notes the source's numbering stands.

The target of the experiment is T1, TNFR1. Nature of the experiment: yeast display SC50.
As for B1, the “apparent Kd (screen)” value stood at 0.79 nM.
To B2 belongs 11.4 nM; to B3, 0.539 nM.
B4: the “apparent Kd (screen)” value worked out at 3.99 nM.
In the case of B5, the “apparent Kd (screen)” value was found to be 0.593 nM.
Consider B6, for which the “apparent Kd (screen)” value worked out at 0.869 nM.
B7: the “apparent Kd (screen)” value is 0.653 nM.
As for B8, the “apparent Kd (screen)” value was 0.79 nM.
Regarding B9, the “apparent Kd (screen)” value stood at 0.539 nM.
For the molecule B10, the “apparent Kd (screen)” value was 0.446 nM.
Take B11: the “apparent Kd (screen)” value stood at 4.39 nM.
For the molecule B12, the “apparent Kd (screen)” value was 0.956 nM.
Under B13 stands 0.869 nM.
Take B14: the “apparent Kd (screen)” value is 0.446 nM.
On to B15, for which the “apparent Kd (screen)” value worked out at 2.25 nM.
Regarding B16, the “apparent Kd (screen)” value amounted to 2.25 nM.
In the case of B17, the “apparent Kd (screen)” value was 0.653 nM.
For B18, the “apparent Kd (screen)” value was 0.446 nM.
Under B19 stands 0.49 nM; under B20, 2.05 nM; under B21, 0.79 nM.
B22: the “apparent Kd (screen)” value worked out at 0.446 nM.
Regarding B23, the “apparent Kd (screen)” value is 0.79 nM.
Consider B24, for which the “apparent Kd (screen)” value was found to be 0.653 nM.
Under B25 stands 0.653 nM.
For B26, the “apparent Kd (screen)” value was found to be 0.718 nM.
Under B27 stands 0.593 nM; under B28, 0.593 nM; under B29, 2.48 nM.
As to B30, the “apparent Kd (screen)” value was 0.593 nM.
As for B31, the “apparent Kd (screen)” value was 0.593 nM.
In the case of B32, the “apparent Kd (screen)” value came to 0.49 nM.
For B33, the “apparent Kd (screen)” value was found to be 0.653 nM.
Consider B34, for which the “apparent Kd (screen)” value is 0.593 nM.
To B35 belongs 0.49 nM; to B36, 18.3 nM; to B37, 0.593 nM.
As for B38, the “apparent Kd (screen)” value turned out to be 0.539 nM.
Take B39: the “apparent Kd (screen)” value came out at 0.653 nM.
Regarding B40, the “apparent Kd (screen)” value came out at 1.4 nM.
Turning to B41, the “apparent Kd (screen)” value stood at 0.446 nM.
Turning to B42, the “apparent Kd (screen)” value amounted to 0.593 nM.
Turning to B43, the “apparent Kd (screen)” value came out at 1.05 nM.
Under B44 stands 0.49 nM; under B45, 0.446 nM.
For B46, the “apparent Kd (screen)” value came out at 0.49 nM.
Under B47 stands 0.539 nM.
As to B48, the “apparent Kd (screen)” value was found to be 0.869 nM.
Under B49 stands 0.446 nM; under B50, 0.593 nM; under B51, 0.49 nM.
In the case of B52, the “apparent Kd (screen)” value is 0.79 nM.
As for B53, the “apparent Kd (screen)” value is 12.5 nM.
With B54, the “apparent Kd (screen)” value was determined as 3.3 nM.
In the case of B55, the “apparent Kd (screen)” value stood at 0.79 nM.
